Experimental data: paper PMC5839545

Legend:
[1] = target: mCherry-(s)-CENP-N (human) (UniProt Q96H22); test: dual color fluorescence cross-correlation spectroscopy (DC-FCCS); EGFP and mCherry fusion proteins co-expressed in living interphase HEp-2 or U2OS cells; spots in the nucleoplasm free of kinetochores, focal volume bleached before; 37°C; 488 and 561 nm; corrected values are the measured ones times about two
[2] = target: Spc24/Spc25 137-197+129-224 (Homo sapiens) (UniProt Q8NBT2); settings: cited from earlier work
[3] = target: mCherry-(s)-CENP-I (human) (UniProt Q92674); test: dual color fluorescence cross-correlation spectroscopy (DC-FCCS); EGFP and mCherry fusion proteins co-expressed in living interphase HEp-2 or U2OS cells; spots in the nucleoplasm free of kinetochores, focal volume bleached before; 37°C; 488 and 561 nm; corrected values are the measured ones times about two
[4] = target: mCherry-(s)-CENP-K (human) (UniProt Q9BS16); test: as above
[5] = target: CENP-I-(s)-mCherry (human) (UniProt Q92674); test: as above
Chain of CENP-I-(s)-mCherry (human) (Q92674 whole entry): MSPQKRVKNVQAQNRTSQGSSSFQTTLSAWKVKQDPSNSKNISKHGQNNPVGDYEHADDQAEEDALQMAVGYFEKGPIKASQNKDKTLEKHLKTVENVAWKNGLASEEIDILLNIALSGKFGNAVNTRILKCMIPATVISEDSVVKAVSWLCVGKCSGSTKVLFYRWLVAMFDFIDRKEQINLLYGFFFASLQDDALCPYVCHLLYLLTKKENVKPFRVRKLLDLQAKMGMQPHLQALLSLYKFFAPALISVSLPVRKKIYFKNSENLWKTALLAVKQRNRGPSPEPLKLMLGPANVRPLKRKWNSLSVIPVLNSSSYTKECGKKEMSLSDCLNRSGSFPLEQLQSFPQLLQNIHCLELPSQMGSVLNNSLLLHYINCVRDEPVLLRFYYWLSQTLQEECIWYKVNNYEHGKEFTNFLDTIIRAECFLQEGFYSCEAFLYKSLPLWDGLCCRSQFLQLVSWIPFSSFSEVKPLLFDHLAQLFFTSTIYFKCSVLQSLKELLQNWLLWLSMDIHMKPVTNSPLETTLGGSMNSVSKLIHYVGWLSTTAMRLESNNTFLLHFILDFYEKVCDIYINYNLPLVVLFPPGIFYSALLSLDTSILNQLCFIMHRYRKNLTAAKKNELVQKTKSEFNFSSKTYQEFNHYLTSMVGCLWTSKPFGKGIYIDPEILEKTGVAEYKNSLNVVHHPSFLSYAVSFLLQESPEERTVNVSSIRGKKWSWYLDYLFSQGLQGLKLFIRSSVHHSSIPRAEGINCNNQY

Chain of mCherry-(s)-CENP-K (human) (Q9BS16 whole entry): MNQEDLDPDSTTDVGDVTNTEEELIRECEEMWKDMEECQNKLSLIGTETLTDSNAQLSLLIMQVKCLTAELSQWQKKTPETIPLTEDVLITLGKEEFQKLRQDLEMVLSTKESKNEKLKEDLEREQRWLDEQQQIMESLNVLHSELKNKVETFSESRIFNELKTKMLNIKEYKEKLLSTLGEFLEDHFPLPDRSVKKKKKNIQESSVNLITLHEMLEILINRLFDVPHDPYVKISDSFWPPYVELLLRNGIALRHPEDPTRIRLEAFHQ
Chain of EGFP-(l)-CENP-M (Q9NSP4 whole entry): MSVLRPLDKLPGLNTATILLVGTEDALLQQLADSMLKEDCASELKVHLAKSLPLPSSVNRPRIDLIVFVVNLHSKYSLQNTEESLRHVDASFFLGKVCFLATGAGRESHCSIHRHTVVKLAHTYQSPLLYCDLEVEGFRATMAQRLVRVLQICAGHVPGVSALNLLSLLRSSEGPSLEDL
Chain of mCherry-(s)-CENP-N (human) (Q96H22 whole entry, the tested form may be a part): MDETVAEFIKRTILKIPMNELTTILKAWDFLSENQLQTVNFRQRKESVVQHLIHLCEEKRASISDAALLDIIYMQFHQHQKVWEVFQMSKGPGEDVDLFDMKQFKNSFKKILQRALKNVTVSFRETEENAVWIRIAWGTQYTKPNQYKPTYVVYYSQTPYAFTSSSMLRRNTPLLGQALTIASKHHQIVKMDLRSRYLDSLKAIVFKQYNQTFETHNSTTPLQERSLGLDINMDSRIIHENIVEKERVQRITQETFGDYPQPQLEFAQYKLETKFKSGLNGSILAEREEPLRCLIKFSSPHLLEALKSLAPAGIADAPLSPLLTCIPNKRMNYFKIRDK
Chain of mCherry-(s)-CENP-I (human) (Q92674 whole entry, the tested form may be a part): as the sequence (Q92674 whole entry) above
Chain of Spc24/Spc25 137-197+129-224 (Homo sapiens) (Q8NBT2 whole entry, chain 1 of 2, the tested form may be a part): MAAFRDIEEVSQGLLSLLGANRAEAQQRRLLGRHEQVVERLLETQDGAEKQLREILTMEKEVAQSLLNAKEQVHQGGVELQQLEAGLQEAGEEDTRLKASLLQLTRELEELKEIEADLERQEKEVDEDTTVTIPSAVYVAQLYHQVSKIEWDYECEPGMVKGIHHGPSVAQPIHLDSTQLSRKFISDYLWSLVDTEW
Chain of Spc24/Spc25 137-197+129-224 (Homo sapiens) (Q9HBM1 whole entry, chain 2 of 2, further chain, the tested form may be a part): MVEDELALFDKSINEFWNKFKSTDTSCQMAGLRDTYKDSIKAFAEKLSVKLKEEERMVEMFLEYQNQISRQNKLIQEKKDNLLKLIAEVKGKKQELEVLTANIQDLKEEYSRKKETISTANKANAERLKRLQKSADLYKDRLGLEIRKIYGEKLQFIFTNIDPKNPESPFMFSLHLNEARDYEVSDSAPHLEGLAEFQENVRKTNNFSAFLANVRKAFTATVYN
Chain of CENP-T 76-106 (Q96BT3 76-106): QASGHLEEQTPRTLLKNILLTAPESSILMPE
Chain of EGFP-(l)-CENP-L (Q8N0S6 whole entry): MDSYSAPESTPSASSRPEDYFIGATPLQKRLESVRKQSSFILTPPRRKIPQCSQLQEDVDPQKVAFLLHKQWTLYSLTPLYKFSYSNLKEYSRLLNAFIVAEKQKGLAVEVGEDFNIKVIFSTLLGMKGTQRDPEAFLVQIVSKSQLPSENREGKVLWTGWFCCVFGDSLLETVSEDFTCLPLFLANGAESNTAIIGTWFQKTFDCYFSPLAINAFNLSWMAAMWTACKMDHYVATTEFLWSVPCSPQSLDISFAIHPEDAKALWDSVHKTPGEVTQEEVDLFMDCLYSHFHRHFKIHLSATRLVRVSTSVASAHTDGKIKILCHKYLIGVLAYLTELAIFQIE

**Q.** With “CENP-K-(s)-EGFP (from UniProt Q9BS16 1-269) (natural protein)” as the substance, how does the cross-correlation, measured (%) [1] read?
**A.** 26%

**Q.** With CENP-T 76-106 (from UniProt Q96BT3) as the substance, how does the Kd [2] read?
**A.** 645 nM

**Q.** Which cross-correlation, measured (%) [1] does the source give for “EGFP-(l)-CENP-L (from UniProt Q8N0S6 1-344) (natural protein; other documents disagree on this pair)” here?
**A.** 23%

**Q.** Which cross-correlation, measured (%) [3] does the source give for “EGFP-(l)-CENP-M (from UniProt Q9NSP4 1-180) (natural protein)” here?
**A.** 24%

**Q.** What about the co-migration in one cell (%) [4] of the same substance?
**A.** 49%

**Q.** What about the cross-correlation, corrected (%) [4] of the same substance?
**A.** 56 to 92%

**Q.** What about the cross-correlation, measured (%) [4] of the same substance?
**A.** 37%

**Q.** Which cross-correlation, measured (%) [5] does the source give for “EGFP-(s)-CENP-H (from UniProt Q9H3R5 1-247) (natural protein)” here?
**A.** 22%

**Q.** For “EGFP-(s)-CENP-K (from UniProt Q9BS16 1-269) (natural protein)”, which cross-correlation, measured (%) [3] is on record?
**A.** 20%
